From paper PMC5586343, “t‐Darpp is an elongated monomer that binds calcium and is phosphorylated by cyclin‐dependent kinases 1 and 5” (FEBS Open Bio, 2017)

Biological target: the molecule itself
Test: cross-linking; glutaraldehyde 0.1% (v/v) and 1% (v/v), 30 min at 25 °C, then SDS/PAGE; each protein alone and an equimolar mixture of t‐Darpp and Darpp‐32

B1: Darpp‐32 (dopamine‐ and cAMP‐regulated phosphoprotein) (natural protein, human, UniProt Q9UD71-1 1-204, looked up)
chain: MDPKDRKKIQFSVPAPPSQLDPRQVEMIRRRRPTPAMLFRLSEHSSPEEEASPHQRASGEGHHLKSKRPNPCAYTPPSLKAVQRIAESHLQSISNLNENQASEEEDELGELRELGYPREEDEEEEEDDEEEEEEEDSQAEVLKVIRQSAGQKTTCGQGLEGPWERPPPLDESERDGGSEDQVEDPALSEPGEEPQRPSPSEPGT
notes: Darpp‐32, longer isoform of PPP1R1B with 36 additional N-terminal residues compared with t‐Darpp; cDNA amplified from Darpp‐32/pET‐49 and cloned into pET‐28a; source: E. coli BL21 DE3, purified (Ni‐NTA)
  stoichiometry N: 2
